In the supplement of paper PMC12042874 one finds amyloid nucleation score data, which are given here for 131 substances.

± gives the uncertainty stated by the source.

The nature of the data set: amyloid nucleation score (Sup35N fusion, yeast selection) (log enrichment); library NNK3; higher = more nucleation; inactive = no reads after selection. An outline of the steps:
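Peptides of 20 random codons fused to Sup35N were expressed in psi-negative yeast, induced 24 hours with 100 μM copper sulfate, then grown 7 days at 30°C on medium lacking adenine and uracil. Input and output plasmid inserts were Illumina-sequenced. Nucleation score is the DiMSum log enrichment of output over input reads, centred on the mode score of non-aggregating sequences, excluding sequences with under 100 input reads. Random libraries had three technical output replicates.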

As for PVMSS, the amyloid nucleation score result was “inactive”. Consider AFRSTSQYVY, for which the amyloid nucleation score entry was “inactive”. Take SLFRFVDECCMNDFRLRLSC: the amyloid nucleation score entry was “inactive”. With FDDVGSNSLHCIMMHELLGV the entry was “inactive”; with RTTAK, “inactive”. The same measure for DDTRYHAHTSNLGRITHRIQ: “inactive”; for RYSESLMFRFKWDDYYRGRV: -0.307 ± 0.88; for CCLFMLFMRMRTHL: “inactive”. With VIRIGDPILTV the entry was “inactive”; with IPLLNVFSTRRSTCLEGSFT, “inactive”; with YVNTDVIVHENVFLLNSHNS, 1.69 ± 0.089. For the substance SKLYYHNQLCFILMHTA, the amyloid nucleation score result was “inactive”.

Turning to CGSVSSI, the amyloid nucleation score result was “inactive”. Take YSNRVGNAYMGSLKTSWHVM: the amyloid nucleation score entry is “inactive”. With SMLGHKIN the entry was “inactive”; with IFNNYIIYTSYKEV, 3.49 ± 0.077. With IWRLLGSWVSVTMDIYHWSS the entry was “inactive”; with ILLMLSVQGNLLKRMRILSM, “inactive”; with HAMCHVVGTRISGYLCAYGT, “inactive”. As for HNPLVRFAQHLLITEDQCMN, the amyloid nucleation score result was “inactive”.

AFVGRWYCGFVASVIFEMQG: the amyloid nucleation score was 0.069 ± 0.47. The same measure for CFGRLLRTAILNLCNLFFAL: “inactive”. The same measure for SKAMWLSLM: “inactive”. The same measure for LNALLGQYSDISMRISLNVS: “inactive”. For SKFFLPQTEFPQKGLTPITA, the amyloid nucleation score entry is “inactive”.

In turn, QEAGFMYGCYFVILQNHAGF came in with an amyloid nucleation score of 1.3 ± 0.092. The same measure for LFVASLTTCIFWA: 2.4 ± 0.054; for YNSFEFGVMSAL: “inactive”.

For the substance YKDIRCGWLMFGVANLQ, the amyloid nucleation score entry is “inactive”.

Turning to GSSTYLTDLPTSPPSVFSSL, the amyloid nucleation score result is “inactive”. DFCMVVHCIKFMGLCRGGDV: the amyloid nucleation score was determined as 1.02 ± 0.17. As to STMDSIYQFL, the amyloid nucleation score entry was “inactive”. Turning to CKTGPEDTC, the amyloid nucleation score result was “inactive”. As for LGMIHFVFMYFETYCYTYTI, the amyloid nucleation score result is “inactive”. With ITWWLVIVAARSEGSCSPFQ the figure was 0.158 ± 0.27. The same measure for CQYRVTSYHSSWFFSEAMHP: -0.268 ± 0.7. With GVKLVPAAIVGYASLQGL the figure was -0.375 ± 0.83. On to TSGSEDLLYGRDVVVYRSGC, for which the amyloid nucleation score entry was “inactive”. With ILIRITGAFYIMIINNRRLL the entry was “inactive”. With AVNMLESFFGGVPLRSLCFV the entry was “inactive”; with VVRYDEGVVLNSRFLLSPGW, “inactive”. With KLICKERYVVYSVILVLKEL, the amyloid nucleation score result was “inactive”. Take VVRFFLRTRTEGGYTWVLK: the amyloid nucleation score result is “inactive”. The substance PRLRHVICHGRFWNPMIQVG yielded an amyloid nucleation score of 0.971 ± 0.19. With TRIFVCVFVCTTPTMHAPIW the figure was 0.921 ± 0.23; with SFVVN, “inactive”; with VQIRAANLTYNRQCQSHLFS, “inactive”. Take CFAHSLMR: the amyloid nucleation score entry was “inactive”. With DEYATRIGYWCCK the figure was 1.7 ± 0.084; with YSLRVHSAYIVVKYII, “inactive”; with QAIGIRICSK, “inactive”. With RNMGYVTDNYLYTVLYYDCY the entry was “inactive”; with HCHCIVEYQFFSVHLIRTYE, “inactive”. Take CTLVLLKQ: the amyloid nucleation score entry was “inactive”. With DMGKKSSLGNKWVIREAHMG the entry was “inactive”; with TRCTGSYNNYG, “inactive”; with DCNSVFVLRVFNSVLFGIKD, “inactive”. The same measure for QLFTVTLQLTLLSKIDTANL: 1.03 ± 0.13; for LSGKWNKMVCRLVTSKLIFE: “inactive”. The substance AWRKPCWGRVNYFLYIVGAG came in with an amyloid nucleation score of 2.33 ± 0.088.

IYYHIETSSAVASWYWRCAT: the amyloid nucleation score entry was “inactive”.

On to VTLADEDGYKFLTLVKVLTY, for which the amyloid nucleation score entry is “inactive”. With LISLPVG the figure was -0.254 ± 0.7; with MNEKENMMNTQWIVCNTCAK, “inactive”; with VSLLMRASGSCLNMQVYSGF, 1.57 ± 0.11. Take MIFLLTSIL: the amyloid nucleation score entry was “inactive”. With FVDWFLVGCRMVMLDRVLAS the entry was “inactive”; with FDRDWDMFFVRIVSQCGMLW, “inactive”; with NESFDCPFAGLYRKQYIWQT, “inactive”. Turning to WYFPTQ, the amyloid nucleation score result was “inactive”.

For VEHHDFSRSSSAYTRVL, the amyloid nucleation score entry was “inactive”. The same measure for RIDRSYACALSWHVLYVNR: 0.436 ± 0.23; for ASRAESVVGSFFCFFL: 2.17 ± 0.087. The same measure for KLMLHNEYMPGVQLLLNQYK: 0.436 ± 0.46; for PPCWLYDFVTNVNNWWYEHC: “inactive”; for WNFNRVYHFLTIEMF: “inactive”. For the substance SQFLLGSQ, the amyloid nucleation score entry is “inactive”.

With NRVAYTAQCQIIFCVGGYCL, the amyloid nucleation score was determined as 2.72 ± 0.069. On to LFCIWSSVLVRVHVFQKW, for which the amyloid nucleation score result is “inactive”. The same measure for QVFHFGCSEDARCVCRVHM: “inactive”; for LFVIVMSFLFGWFFYRNNYA: 1.84 ± 0.099. The same measure for GWLKNNYSTYDTEKKFTATF: “inactive”. With SWVRTGFL the entry was “inactive”.

In the case of TSTFARDKVDFAVLSLF, the amyloid nucleation score result was “inactive”.

As for LITKWKWEFANTQWRSGQKG, the amyloid nucleation score is 1.36 ± 0.15. With RHCWVPGCDRQCKWYFEGTS the entry was “inactive”; with KLFWMIVCGVLNLNSNNYGG, 2.57 ± 0.084; with QDIELMFSFFDGKAFSSYHL, -0.787 ± 0.98.

In the case of RVVNFFVGVNTNEAMFKRSV, the amyloid nucleation score turned out to be 2.71 ± 0.067. Take ERLSMLVPYISDRYWLSDVN: the amyloid nucleation score entry is “inactive”. As to IRYVFPFDIAHYFYLTKRYG, the amyloid nucleation score entry was “inactive”. Take VQHFRHQSASELV: the amyloid nucleation score result was “inactive”. With CREVINDSFPNATWLHSGLV the entry was “inactive”. With YGGDWCARTPCLSRVNSVKP the entry was “inactive”.

As to SDGVGQLDSDVHSGGGDNRQ, the amyloid nucleation score entry is “inactive”. In the case of DVMSEFLFKYWVVNQQCFTR, the amyloid nucleation score entry is “inactive”. With YIYVIGWGNVLCGI the figure was 2.22 ± 0.079.

Take YGSYVWYSLLVREWLNSPGY: the amyloid nucleation score entry was “inactive”. Substance ICGMWGFDAMRITSWNVPNG came in with an amyloid nucleation score of 0.075 ± 0.29. Regarding YYVSRVSKMCWLRDVRWISI, the amyloid nucleation score entry was “inactive”. The same measure for WIVVENW: “inactive”.

On to RSEVRR, for which the amyloid nucleation score is -0.013 ± 0.51. As for CGRGDSVLSI, the amyloid nucleation score entry was “inactive”. The same measure for YDRNLNMCLQEMHRNIR: “inactive”; for CINNLYGRNVGSYGECEPFA: “inactive”; for TGDRIWTIGFFGEPNGVLKG: “inactive”. In the case of IKSERIWDM, the amyloid nucleation score result is “inactive”. FLSLIKM: the amyloid nucleation score was 0.39 ± 0.2. Regarding SCKRPVTVWACDQVRYDRFP, the amyloid nucleation score entry is “inactive”. The same measure for IIAPRLY: “inactive”; for HISRYEITVGCLIFRLLTRE: 2.46 ± 0.054; for LTGFYYFTAYVCPNLILVTR: 0.878 ± 0.14. The same measure for YVCDRL: “inactive”; for NTFTPVFLTSKYSMRYGLIM: “inactive”. The same measure for KSLHTGGGLDSRYGS: “inactive”. Consider LVVIDTIIHCLFKTAQCAWF, for which the amyloid nucleation score entry was “inactive”. RGSPFSWVGPSDRSWSPKFP: the amyloid nucleation score result is “inactive”.

Take LRPYHSRVWCVRLQSYSMVR: the amyloid nucleation score result is “inactive”.

As for CFVGLRSGAVSCWGQGNYVA, the amyloid nucleation score entry was “inactive”. With RIYKNRSSSGILLNERFPGL the figure was -0.46 ± 1.3.

As for DCVGYRGGDGFAWTADELWS, the amyloid nucleation score entry is “inactive”.

As for GLVHCNGSPAQITFKDTFNR, the amyloid nucleation score result is “inactive”. Substance LINSNVNTVSLFIPFSRMED gave an amyloid nucleation score of 1.58 ± 0.1. With PRAMLPDWSSALVWWLN the entry was “inactive”. For the substance MRGWLRLSELCKGVLIVGFA, the amyloid nucleation score entry was “inactive”. As for SDIMNDH, the amyloid nucleation score entry was “inactive”. With GQWELGHFQCKVPYLLSQLL, the amyloid nucleation score entry is “inactive”. For VCITRMQVRLPTYLRVQSKA, the amyloid nucleation score entry was “inactive”. On to MSSQCWRQIGWDTCARS, for which the amyloid nucleation score entry was “inactive”. As for WSKHVCLFENSKSPHFSEDS, the amyloid nucleation score result was “inactive”.

Consider INCLRSLTNCINSCRPIIVL, for which the amyloid nucleation score entry is “inactive”.
